Data from patent publication US20190309093A1.

Tests used:
[1] = target: CD3 on Jurkat luciferase reporter cells (UniProt P07766); test: flow cytometry of Jurkat_NFAT_Luc2P cells, PE-A; fold over hIgG
[2] = target: CD3 on Jurkat luciferase reporter cells (UniProt P07766); test: flow cytometry of Jurkat_NFAT_Luc2P cells; reference value, printed in all three panels on the left
[3] = target: CD3 on Jurkat luciferase reporter cells (UniProt P07766); test: flow cytometry of Jurkat_NFAT_Luc2P cells, FITC-A; fold over hIgG

In the case of Commercial CD3e(HiT3a) (antibody), the Fold [1] is reported as 58.

In the case of hIgG (antibody), the Fold [2] is reported as 1.

With mOKT3 (antibody) the Fold [3] was 45.
